Patent publication US20160272683A1 (Novo Nordisk, published 2016)
Each block holds one binder with its values, some of them ahead of it. Numbered stars: 1 amine (or outer) side, 2 acyl side, 3 side chain; on linkers, the order of the positions; unused ones are H or OH. * marks the point of attachment. C20 diacid = O=C(O)CCCCCCCCCCCCCCCCCCC(=O)*; C18 diacid = O=C(O)CCCCCCCCCCCCCCCCC(=O)*; C16 diacid = O=C(O)CCCCCCCCCCCCCCC(=O)*; γGlu = O=C(O)[C@H](CCC(=O)[*:2])N[*:1]; AEEA = NCCOCCOCC(=O)O

Experiments:
Experiment in all cases: cell-based or functional assay
[1] = biological target: T1, human amylin 3(a) receptor (human calcitonin receptor co-expressed with RAMP-3) (human, UniProt P30988 25-474; O60896 24-148, limits assumed)
T1 sequence (looked up) 1: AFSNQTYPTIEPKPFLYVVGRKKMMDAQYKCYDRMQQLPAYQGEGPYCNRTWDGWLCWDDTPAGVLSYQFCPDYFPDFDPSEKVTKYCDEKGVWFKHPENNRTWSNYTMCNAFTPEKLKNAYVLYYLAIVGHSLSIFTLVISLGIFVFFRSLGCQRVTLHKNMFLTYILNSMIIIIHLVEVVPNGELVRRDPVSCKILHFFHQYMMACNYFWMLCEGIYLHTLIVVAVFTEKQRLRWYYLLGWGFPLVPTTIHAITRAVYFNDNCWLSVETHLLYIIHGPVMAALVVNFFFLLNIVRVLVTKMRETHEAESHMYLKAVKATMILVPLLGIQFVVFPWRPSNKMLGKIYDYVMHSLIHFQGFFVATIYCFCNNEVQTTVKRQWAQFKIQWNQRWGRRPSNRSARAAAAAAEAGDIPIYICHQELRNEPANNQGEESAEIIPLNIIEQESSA
T1 sequence (looked up) 2: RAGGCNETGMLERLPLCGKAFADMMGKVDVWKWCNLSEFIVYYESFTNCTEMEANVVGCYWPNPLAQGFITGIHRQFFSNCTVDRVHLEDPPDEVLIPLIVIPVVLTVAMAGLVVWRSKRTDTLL

[2] = biological target: T2, human calcitonin receptor (human, UniProt P30988 25-474)
T2 sequence (looked up): T1 sequence (looked up) 1

[3] = biological target: T3, human calcitonin receptor on BHK570/CRE-luc cells (human, UniProt P30988 25-474)
T3 sequence (looked up): T1 sequence (looked up) 1

[4] = biological target: T4, human amylin 3(a) receptor (human calcitonin receptor co-expressed with RAMP-3) on BHK570/CRE-luc cells (human, UniProt P30988 25-474; O60896 24-148)
T4 sequence (looked up) 1: T1 sequence (looked up) 1
T4 sequence (looked up) 2: T1 sequence (looked up) 2

B3: [N-terminal(C18 diacid-gGlu), des1, 30S, 31G]mimylin (peptide)
peptide: {C18 diacid-γGlu}-ASELSTAALGRLSAELHELATLPRTETGSGSP-NH2
- hAmylin-R funct. EC50 (pM) [1]: 16 pM
- hCTR funct. EC50 (pM) [2]: 17 pM

B4: [N-terminal(C18 diacid), des1, 30S, 31G]mimylin (peptide)
peptide: {C18 diacid}-ASELSTAALGRLSAELHELATLPRTETGSGSP-NH2
- hAmylin-R funct. EC50 (pM) [1]: 18 pM
- hCTR funct. EC50 (pM) [2]: 17 pM

B7: [N-terminal(C16 diacid-gGlu), des1, 30S, 31G]mimylin (peptide)
peptide: {C16 diacid-γGlu}-ASELSTAALGRLSAELHELATLPRTETGSGSP-NH2
- hAmylin-R funct. EC50 (pM) [1]: 18 pM
- hCTR funct. EC50 (pM) [2]: 15 pM

B8: [N-terminal(C18 diacid), 3P, 4P, 9V]mimylin (peptide)
peptide: {C18 diacid}-EAPPLSTAVLGRLSAELHELATLPRTETGPESP-NH2
SMILES: CC(C)C[C@H](NC(=O)[C@H](CCC(=O)O)NC(=O)[C@H](Cc1c[nH]cn1)NC(=O)[C@H](CC(C)C)NC(=O)[C@H](CCC(=O)O)NC(=O)[C@H](C)NC(=O)[C@H](CO)NC(=O)[C@H](CC(C)C)NC(=O)[C@H](CCCNC(=N)N)NC(=O)CNC(=O)[C@H](CC(C)C)NC(=O)[C@@H](NC(=O)[C@H](C)NC(=O)[C@@H](NC(=O)[C@H](CO)NC(=O)[C@H](CC(C)C)NC(=O)[C@@H]1CCCN1C(=O)[C@@H]1CCCN1C(=O)[C@H](C)NC(=O)[C@H](CCC(=O)O)NC(=O)CCCCCCCCCCCCCCCCC(=O)O)[C@@H](C)O)C(C)C)C(=O)N[C@@H](C)C(=O)N[C@H](C(=O)N[C@@H](CC(C)C)C(=O)N1CCC[C@H]1C(=O)N[C@@H](CCCNC(=N)N)C(=O)N[C@H](C(=O)N[C@@H](CCC(=O)O)C(=O)N[C@H](C(=O)NCC(=O)N1CCC[C@H]1C(=O)N[C@@H](CCC(=O)O)C(=O)N[C@@H](CO)C(=O)N1CCC[C@H]1C(N)=O)[C@@H](C)O)[C@@H](C)O)[C@@H](C)O
- hAmylin-R funct. EC50 (pM) [1]: 12 pM
- hCTR funct. EC50 (pM) [2]: 6 pM

B10: [N-terminal(C18 diacid), 5I, 9I, 10I]mimylin (peptide)
peptide: {C18 diacid}-EASEISTAIIGRLSAELHELATLPRTETGPESP-NH2
SMILES: CC[C@H](C)[C@H](NC(=O)[C@H](C)NC(=O)[C@@H](NC(=O)[C@H](CO)NC(=O)[C@@H](NC(=O)[C@H](CCC(=O)O)NC(=O)[C@H](CO)NC(=O)[C@H](C)NC(=O)[C@H](CCC(=O)O)NC(=O)CCCCCCCCCCCCCCCCC(=O)O)[C@@H](C)CC)[C@@H](C)O)C(=O)N[C@H](C(=O)NCC(=O)N[C@@H](CCCNC(=N)N)C(=O)N[C@@H](CC(C)C)C(=O)N[C@@H](CO)C(=O)N[C@@H](C)C(=O)N[C@@H](CCC(=O)O)C(=O)N[C@@H](CC(C)C)C(=O)N[C@@H](Cc1c[nH]cn1)C(=O)N[C@@H](CCC(=O)O)C(=O)N[C@@H](CC(C)C)C(=O)N[C@@H](C)C(=O)N[C@H](C(=O)N[C@@H](CC(C)C)C(=O)N1CCC[C@H]1C(=O)N[C@@H](CCCNC(=N)N)C(=O)N[C@H](C(=O)N[C@@H](CCC(=O)O)C(=O)N[C@H](C(=O)NCC(=O)N1CCC[C@H]1C(=O)N[C@@H](CCC(=O)O)C(=O)N[C@@H](CO)C(=O)N1CCC[C@H]1C(N)=O)[C@@H](C)O)[C@@H](C)O)[C@@H](C)O)[C@@H](C)CC
- hAmylin-R funct. EC50 (pM) [1]: 10 pM
- hCTR funct. EC50 (pM) [2]: 5 pM

B12: [N-terminal(C18 diacid), 9V, 12K, 25K]mimylin (peptide)
peptide: {C18 diacid}-EASELSTAVLGKLSAELHELATLPKTETGPESP-NH2
SMILES: CC(C)C[C@H](NC(=O)[C@H](CCC(=O)O)NC(=O)[C@H](Cc1c[nH]cn1)NC(=O)[C@H](CC(C)C)NC(=O)[C@H](CCC(=O)O)NC(=O)[C@H](C)NC(=O)[C@H](CO)NC(=O)[C@H](CC(C)C)NC(=O)[C@H](CCCCN)NC(=O)CNC(=O)[C@H](CC(C)C)NC(=O)[C@@H](NC(=O)[C@H](C)NC(=O)[C@@H](NC(=O)[C@H](CO)NC(=O)[C@H](CC(C)C)NC(=O)[C@H](CCC(=O)O)NC(=O)[C@H](CO)NC(=O)[C@H](C)NC(=O)[C@H](CCC(=O)O)NC(=O)CCCCCCCCCCCCCCCCC(=O)O)[C@@H](C)O)C(C)C)C(=O)N[C@@H](C)C(=O)N[C@H](C(=O)N[C@@H](CC(C)C)C(=O)N1CCC[C@H]1C(=O)N[C@@H](CCCCN)C(=O)N[C@H](C(=O)N[C@@H](CCC(=O)O)C(=O)N[C@H](C(=O)NCC(=O)N1CCC[C@H]1C(=O)N[C@@H](CCC(=O)O)C(=O)N[C@@H](CO)C(=O)N1CCC[C@H]1C(N)=O)[C@@H](C)O)[C@@H](C)O)[C@@H](C)O
- hAmylin-R funct. EC50 (pM) [1]: 16 pM
- hCTR funct. EC50 (pM) [2]: 8 pM

B16: [N-terminal(C18 diacid), 30S, 31G]mimylin (peptide)
peptide: {C18 diacid}-EASELSTAALGRLSAELHELATLPRTETGSGSP-NH2
- hCTR funct. EC50 (pM), tested with HSA [3]: 19 pM
- hAmylin-R funct. EC50 (pM), tested with HSA [4]: 39 pM

Second part, the binder after the results:

- hAmylin-R funct. EC50 (pM) [1]: 13 pM
- hCTR funct. EC50 (pM) [2]: 14 pM
B1: [N-terminal(C20 diacid-gGlu), des1, 30S, 31G]mimylin (peptide)
peptide: {C20 diacid-γGlu}-ASELSTAALGRLSAELHELATLPRTETGSGSP-NH2

- hAmylin-R funct. EC50 (pM) [1]: 18 pM
- hCTR funct. EC50 (pM) [2]: 11 pM
B2: [N-terminal(C20 diacid-gGlu-3xOEG), des1, 30S, 31G]mimylin (peptide)
peptide: {C20 diacid-γGlu-AEEA-AEEA-AEEA}-ASELSTAALGRLSAELHELATLPRTETGSGSP-NH2

- hCTR funct. EC50 (pM), tested with HSA [3]: 74 pM
- hAmylin-R funct. EC50 (pM), tested with HSA [4]: 143 pM
B5: [N-terminal(C20 diacid-gGlu), 23Y, 30S, 31G]mimylin (peptide)
peptide: {C20 diacid-γGlu}-EASELSTAALGRLSAELHELATYPRTETGSGSP-NH2
SMILES: CC(C)C[C@H](NC(=O)[C@H](C)NC(=O)[C@H](C)NC(=O)[C@@H](NC(=O)[C@H](CO)NC(=O)[C@H](CC(C)C)NC(=O)[C@H](CCC(=O)O)NC(=O)[C@H](CO)NC(=O)[C@H](C)NC(=O)[C@H](CCC(=O)O)NC(=O)CC[C@H](NC(=O)CCCCCCCCCCCCCCCCCCC(=O)O)C(=O)O)[C@@H](C)O)C(=O)NCC(=O)N[C@@H](CCCNC(=N)N)C(=O)N[C@@H](CC(C)C)C(=O)N[C@@H](CO)C(=O)N[C@@H](C)C(=O)N[C@@H](CCC(=O)O)C(=O)N[C@@H](CC(C)C)C(=O)N[C@@H](Cc1c[nH]cn1)C(=O)N[C@@H](CCC(=O)O)C(=O)N[C@@H](CC(C)C)C(=O)N[C@@H](C)C(=O)N[C@H](C(=O)N[C@@H](Cc1ccc(O)cc1)C(=O)N1CCC[C@H]1C(=O)N[C@@H](CCCNC(=N)N)C(=O)N[C@H](C(=O)N[C@@H](CCC(=O)O)C(=O)N[C@H](C(=O)NCC(=O)N[C@@H](CO)C(=O)NCC(=O)N[C@@H](CO)C(=O)N1CCC[C@H]1C(N)=O)[C@@H](C)O)[C@@H](C)O)[C@@H](C)O

- hAmylin-R funct. EC50 (pM) [1]: 17 pM
- hCTR funct. EC50 (pM) [2]: 12 pM
B6: [N-terminal(C20 diacid-gGlu-2xOEG), des1, 30S, 31G]mimylin (peptide)
peptide: {C20 diacid-γGlu-AEEA-AEEA}-ASELSTAALGRLSAELHELATLPRTETGSGSP-NH2

- hAmylin-R funct. EC50 (pM) [1]: 27 pM
- hCTR funct. EC50 (pM) [2]: 18 pM
B9: [N-terminal(C20 diacid-gGlu-OEG), des1, 30S, 31G]mimylin (peptide)
peptide: {C20 diacid-γGlu-AEEA}-ASELSTAALGRLSAELHELATLPRTETGSGSP-NH2

- hCTR funct. EC50 (pM), tested with HSA [3]: 9 pM
- hAmylin-R funct. EC50 (pM), tested with HSA [4]: 26 pM
B11: [N-terminal(C18 diacid-gGlu), des1, 30S]mimylin (peptide)
peptide: {C18 diacid-γGlu}-ASELSTAALGRLSAELHELATLPRTETGSESP-NH2
SMILES: CC(C)C[C@H](NC(=O)[C@H](C)NC(=O)[C@H](C)NC(=O)[C@@H](NC(=O)[C@H](CO)NC(=O)[C@H](CC(C)C)NC(=O)[C@H](CCC(=O)O)NC(=O)[C@H](CO)NC(=O)[C@H](C)NC(=O)CC[C@H](NC(=O)CCCCCCCCCCCCCCCCC(=O)O)C(=O)O)[C@@H](C)O)C(=O)NCC(=O)N[C@@H](CCCNC(=N)N)C(=O)N[C@@H](CC(C)C)C(=O)N[C@@H](CO)C(=O)N[C@@H](C)C(=O)N[C@@H](CCC(=O)O)C(=O)N[C@@H](CC(C)C)C(=O)N[C@@H](Cc1c[nH]cn1)C(=O)N[C@@H](CCC(=O)O)C(=O)N[C@@H](CC(C)C)C(=O)N[C@@H](C)C(=O)N[C@H](C(=O)N[C@@H](CC(C)C)C(=O)N1CCC[C@H]1C(=O)N[C@@H](CCCNC(=N)N)C(=O)N[C@H](C(=O)N[C@@H](CCC(=O)O)C(=O)N[C@H](C(=O)NCC(=O)N[C@@H](CO)C(=O)N[C@@H](CCC(=O)O)C(=O)N[C@@H](CO)C(=O)N1CCC[C@H]1C(N)=O)[C@@H](C)O)[C@@H](C)O)[C@@H](C)O

- hAmylin-R funct. EC50 (pM) [1]: 15 pM
- hCTR funct. EC50 (pM) [2]: 10 pM
B13: [N-terminal(C20 diacid-gGlu-5xOEG), des1, 30S, 31G]mimylin (peptide)
peptide: {C20 diacid-γGlu-AEEA-AEEA-AEEA-AEEA-AEEA}-ASELSTAALGRLSAELHELATLPRTETGSGSP-NH2

- hAmylin-R funct. EC50 (pM) [1]: 24 pM
- hCTR funct. EC50 (pM) [2]: 13 pM
B14: [N-terminal(C20 diacid-gGlu-4xOEG), des1, 30S, 31G]mimylin (peptide)
peptide: {C20 diacid-γGlu-AEEA-AEEA-AEEA-AEEA}-ASELSTAALGRLSAELHELATLPRTETGSGSP-NH2

- hCTR funct. EC50 (pM), tested with HSA [3]: 26 pM
- hAmylin-R funct. EC50 (pM), tested with HSA [4]: 61 pM
B15: [N-terminal(C20 diacid), 30S, 31G]mimylin (peptide)
peptide: {C20 diacid}-EASELSTAALGRLSAELHELATLPRTETGSGSP-NH2
